Assay [1] addresses T1, Human IL-2Rβ&IL-2Rα&IL-2Rγ protein (human, UniProt P14784 27-239; P01589 22-217; P31785 23-262, limits assumed).
T1 construct: Trimeric receptor protein used as SPR ligand; also called IL-2Rαβγ; Human IL-2RB&IL-2RA&IL-2RG
T1 sequence (looked up) 1: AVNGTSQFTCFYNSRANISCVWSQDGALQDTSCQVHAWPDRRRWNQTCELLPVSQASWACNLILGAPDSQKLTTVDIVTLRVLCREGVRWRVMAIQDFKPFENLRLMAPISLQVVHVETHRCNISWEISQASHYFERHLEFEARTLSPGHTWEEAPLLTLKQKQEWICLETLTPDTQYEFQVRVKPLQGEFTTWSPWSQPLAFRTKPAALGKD
T1 sequence (looked up) 2: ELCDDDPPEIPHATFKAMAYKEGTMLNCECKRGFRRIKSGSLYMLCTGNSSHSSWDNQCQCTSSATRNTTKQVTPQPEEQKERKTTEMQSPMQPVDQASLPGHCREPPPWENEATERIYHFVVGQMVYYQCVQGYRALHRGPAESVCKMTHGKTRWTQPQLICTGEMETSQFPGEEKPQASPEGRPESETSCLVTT
T1 sequence (looked up) 3: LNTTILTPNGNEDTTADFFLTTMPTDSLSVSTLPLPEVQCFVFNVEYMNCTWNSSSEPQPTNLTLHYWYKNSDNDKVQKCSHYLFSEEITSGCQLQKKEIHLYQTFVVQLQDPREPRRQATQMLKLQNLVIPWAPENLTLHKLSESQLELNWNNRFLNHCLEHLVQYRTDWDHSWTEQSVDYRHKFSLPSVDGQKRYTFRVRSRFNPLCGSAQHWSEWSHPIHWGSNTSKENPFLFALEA
Description: SPR (Biacore, receptor on CM5 chip, IL-2 as analyte), 1:1 binding. As for the experimental part:
(§1) The human IL-2 receptors used in this study included IL-2Rα/CD25, IL-2Rβ/CD122, common γ receptor/CD132, IL-2Rβ&IL-2Rγ heterodimer protein, and IL-2Rβ&IL-2Rα&IL-2Rγ protein. The IL-2 receptor proteins were immobilized on a Biacore™ sensor chip CM5 according to manufacturer's protocol. […] The resulting sensorgrams were analyzed with the native instrument software to calculate the binding affinities.
(In general: In SPR one partner is held on a chip, and binding of the other changes the refractive index at the surface.)

The target of assay [2] is T2, Human IL-2Rβ&IL-2Rγ heterodimer protein (human, UniProt P14784 27-239; P31785 23-262, limits assumed).
T2 construct: Heterodimer protein used as SPR ligand; also called IL-2Rβγ; Human IL-2RB&G
T2 sequence (looked up) 1: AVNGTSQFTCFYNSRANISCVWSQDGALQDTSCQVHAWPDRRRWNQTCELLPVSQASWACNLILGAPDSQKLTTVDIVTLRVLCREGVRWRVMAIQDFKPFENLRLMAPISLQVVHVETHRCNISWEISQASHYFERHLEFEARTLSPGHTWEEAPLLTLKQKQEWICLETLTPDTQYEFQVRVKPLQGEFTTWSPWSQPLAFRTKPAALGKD
T2 sequence (looked up) 2: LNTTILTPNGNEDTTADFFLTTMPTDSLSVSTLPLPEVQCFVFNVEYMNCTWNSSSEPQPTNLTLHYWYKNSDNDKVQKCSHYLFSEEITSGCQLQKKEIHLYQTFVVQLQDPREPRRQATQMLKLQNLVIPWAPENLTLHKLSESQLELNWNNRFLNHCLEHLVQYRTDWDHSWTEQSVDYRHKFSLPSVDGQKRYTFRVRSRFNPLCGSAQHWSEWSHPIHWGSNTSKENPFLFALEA
Described as above. The procedure:
as §1

For assay [3], the target named is T3, human high-affinity IL-2 receptor IL-2Rαβγ on cells (human, UniProt P01589 22-272; P14784 27-551; P31785 23-369).
T3 sequence (looked up) 1: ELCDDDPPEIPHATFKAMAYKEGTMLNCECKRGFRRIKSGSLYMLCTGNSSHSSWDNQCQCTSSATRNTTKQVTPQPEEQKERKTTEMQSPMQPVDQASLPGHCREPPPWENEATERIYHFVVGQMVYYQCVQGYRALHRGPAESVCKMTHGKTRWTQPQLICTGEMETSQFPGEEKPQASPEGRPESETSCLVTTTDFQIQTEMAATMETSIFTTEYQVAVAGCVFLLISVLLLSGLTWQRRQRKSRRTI
T3 sequence (looked up) 2: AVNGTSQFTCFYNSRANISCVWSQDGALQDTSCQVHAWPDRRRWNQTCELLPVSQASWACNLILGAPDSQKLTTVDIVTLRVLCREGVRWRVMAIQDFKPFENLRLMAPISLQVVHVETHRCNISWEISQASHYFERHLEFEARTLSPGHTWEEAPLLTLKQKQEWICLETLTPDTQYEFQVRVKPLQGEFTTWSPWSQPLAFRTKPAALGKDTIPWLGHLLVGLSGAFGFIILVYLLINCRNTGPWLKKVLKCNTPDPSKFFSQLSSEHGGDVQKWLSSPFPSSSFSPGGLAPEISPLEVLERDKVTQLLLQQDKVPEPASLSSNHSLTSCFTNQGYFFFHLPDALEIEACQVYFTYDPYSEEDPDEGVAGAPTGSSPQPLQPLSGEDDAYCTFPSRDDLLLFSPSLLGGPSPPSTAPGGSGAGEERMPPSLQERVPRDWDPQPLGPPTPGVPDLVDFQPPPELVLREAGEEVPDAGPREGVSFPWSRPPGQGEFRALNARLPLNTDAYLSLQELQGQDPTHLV
T3 sequence (looked up) 3: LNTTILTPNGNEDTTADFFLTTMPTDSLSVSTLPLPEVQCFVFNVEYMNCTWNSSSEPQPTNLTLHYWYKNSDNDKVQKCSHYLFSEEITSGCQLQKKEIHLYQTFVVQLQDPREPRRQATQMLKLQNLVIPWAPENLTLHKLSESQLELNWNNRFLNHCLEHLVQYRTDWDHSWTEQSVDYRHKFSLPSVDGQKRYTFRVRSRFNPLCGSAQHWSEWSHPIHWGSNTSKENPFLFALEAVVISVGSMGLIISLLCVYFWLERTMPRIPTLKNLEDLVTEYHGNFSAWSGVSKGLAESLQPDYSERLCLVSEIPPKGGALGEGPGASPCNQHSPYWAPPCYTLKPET
Put plainly: cell-based or functional assay.

The target in assay [4] is T4, human intermediate-affinity IL-2 receptor IL-2Rβγ on cells (human, UniProt P14784 27-551; P31785 23-369).
T4 sequence (looked up) 1: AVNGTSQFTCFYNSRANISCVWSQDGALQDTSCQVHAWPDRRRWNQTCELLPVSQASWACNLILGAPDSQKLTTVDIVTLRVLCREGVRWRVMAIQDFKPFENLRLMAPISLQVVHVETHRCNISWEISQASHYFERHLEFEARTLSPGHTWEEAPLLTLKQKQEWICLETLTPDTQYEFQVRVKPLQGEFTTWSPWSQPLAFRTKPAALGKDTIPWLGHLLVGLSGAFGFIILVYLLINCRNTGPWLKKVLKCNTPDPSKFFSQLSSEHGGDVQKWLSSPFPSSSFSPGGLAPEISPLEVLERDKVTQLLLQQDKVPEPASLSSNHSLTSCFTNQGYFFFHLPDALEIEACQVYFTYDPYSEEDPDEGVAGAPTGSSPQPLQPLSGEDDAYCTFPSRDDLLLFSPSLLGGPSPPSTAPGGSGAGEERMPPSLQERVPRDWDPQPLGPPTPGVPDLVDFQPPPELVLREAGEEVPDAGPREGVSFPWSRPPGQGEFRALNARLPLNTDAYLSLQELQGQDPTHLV
T4 sequence (looked up) 2: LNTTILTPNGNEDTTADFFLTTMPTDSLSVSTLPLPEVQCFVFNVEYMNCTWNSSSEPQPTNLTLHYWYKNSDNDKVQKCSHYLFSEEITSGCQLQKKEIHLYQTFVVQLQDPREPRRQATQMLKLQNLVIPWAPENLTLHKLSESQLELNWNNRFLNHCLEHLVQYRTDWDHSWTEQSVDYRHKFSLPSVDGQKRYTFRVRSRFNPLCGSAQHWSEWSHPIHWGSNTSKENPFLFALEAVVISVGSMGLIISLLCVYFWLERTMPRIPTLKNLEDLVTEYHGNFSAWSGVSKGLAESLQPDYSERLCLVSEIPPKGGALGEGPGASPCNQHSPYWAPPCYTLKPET
Description: cell-based or functional assay.

For assay [5], the target named is T5, Human IL-2RB (IL-2Rβ/CD122) protein (human, UniProt P14784 27-239).
T5 construct: Receptor protein used as SPR ligand
T5 sequence (looked up): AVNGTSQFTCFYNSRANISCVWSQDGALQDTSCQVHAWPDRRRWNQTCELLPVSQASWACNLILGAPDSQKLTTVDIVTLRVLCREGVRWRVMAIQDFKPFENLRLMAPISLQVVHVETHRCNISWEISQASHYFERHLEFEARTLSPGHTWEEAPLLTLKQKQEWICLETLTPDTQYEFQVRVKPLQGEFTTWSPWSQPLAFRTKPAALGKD
Description: SPR (Biacore, receptor immobilised on CM5 chip, IL-2 as analyte). As for the experimental part:
as §1

Assay [6] deals with T6, Human IL-2RA (IL-2Rα/CD25) protein (human, UniProt P01589 22-217, limits assumed).
T6 construct: Receptor protein used as SPR ligand
T6 sequence (looked up): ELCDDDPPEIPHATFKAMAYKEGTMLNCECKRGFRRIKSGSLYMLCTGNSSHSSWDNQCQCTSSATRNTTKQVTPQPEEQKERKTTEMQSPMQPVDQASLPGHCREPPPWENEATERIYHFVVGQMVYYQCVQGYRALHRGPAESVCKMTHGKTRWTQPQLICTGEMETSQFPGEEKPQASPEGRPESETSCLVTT
The description is as above. As for the experimental part:
as §1

Assay [7] addresses T7, Human IL-2RG (common γ receptor/CD132) protein (human, UniProt P31785 23-262, limits assumed).
T7 construct: Receptor protein used as SPR ligand
T7 sequence (looked up): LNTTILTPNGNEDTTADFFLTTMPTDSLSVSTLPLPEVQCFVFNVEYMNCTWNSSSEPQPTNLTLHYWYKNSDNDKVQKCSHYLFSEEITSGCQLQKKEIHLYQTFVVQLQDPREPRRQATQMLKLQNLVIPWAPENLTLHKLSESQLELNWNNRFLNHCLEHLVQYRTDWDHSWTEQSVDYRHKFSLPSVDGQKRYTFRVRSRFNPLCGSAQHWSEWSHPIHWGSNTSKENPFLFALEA
The description is as above. The procedure:
as §1

B1: CP-trIL-2 012 (ligand)
chain: PTSSSTKKTQLQLEHLLLDLQMILNGINNYKNPLRPRDLISNINVIVLELKGSETTELKHLQSLEEELKDLEEVLNLAQSKNFHTIVEFLNRWITFSQSIISTLT
notes: H1-H3-H2-H4; loops 1 and 2 removed; de-Ala1, C58S, C125S, P65D
Broadly, the Kd is the concentration at which binding is half-saturated. Higher therefore signals lower affinity. As a reminder, the koff is the first-order rate constant of dissociation. Read a low koff as a long-lived complex. What is called kon is the rate constant with which the complex forms. Low readings indicate slower complex formation, high ones faster complex formation. For the molecule B1, the Kd in assay [1] turned out to be 575 pM; in assay [2], 467 pM. Besides, the koff was found to be 0.000732 s⁻¹ in assay [1] and 0.00106 s⁻¹ in assay [2]. The kon in assay [1] is 1.27e+06 M⁻¹ s⁻¹; in assay [2] it was 2.28e+06 M⁻¹ s⁻¹. For the same molecule, the “% pSTAT5 in human PBMC at Low IL-2v concentration (2.5 nM per paragraph 254); western blot, pSTAT5/STAT5 normalised to 001 High” value in assay [3] was 10.9%. Further, the “% pSTAT5 in human PBMC at High IL-2v concentration (25 nM per paragraph 254); western blot, pSTAT5/STAT5 normalised to 001 High” value in assay [4] amounted to 66.9%. Moreover, the results for the binding result in assay [5], in assay [6] and in assay [7] were “no binding (tested: 7.813-250 nM)”, “no binding (tested: 0.977-250 nM)” and “no binding (tested: 0.977-500 nM)”, respectively.

The values above are taken from US20250163117A1 (CURE GENETICS, published 2025).
